{
  "source": "patent US20250115668A1",
  "about": "(BIOCYTOGEN PHARMACEUTICALS BEIJING, published 2025)",
  "key": {"[1]": {"biological_target": "T1, human OX40 expressed on transfected cells (human, UniProt P43489 29-277)", "T1 construct": "whole, on cells; also called hOX40 on HEK293T-hCTLA4-hOX40 cells; on Jurkat-luc-hOX40", "T1 sequence (looked up)": "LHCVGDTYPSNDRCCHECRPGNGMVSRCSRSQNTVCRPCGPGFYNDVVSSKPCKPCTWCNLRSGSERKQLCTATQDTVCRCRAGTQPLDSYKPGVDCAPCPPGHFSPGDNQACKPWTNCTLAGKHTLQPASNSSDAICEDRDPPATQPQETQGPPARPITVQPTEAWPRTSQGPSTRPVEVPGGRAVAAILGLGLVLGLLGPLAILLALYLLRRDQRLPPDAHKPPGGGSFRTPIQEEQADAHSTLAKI", "assay": "flow cytometry (MFI, anti-hIgG-Fc-Alexa Fluor 647) on HEK293T-hCTLA4-hOX40 cells co-expressing human CTLA4 and human OX40; the bispecific can bind both antigens on the same cell, signal not separable by target"}, "[2]": {"biological_target": "T2, human CTLA4 expressed on transfected cells (human, UniProt P16410 36-223)", "T2 construct": "whole, on cells; also called hCTLA4 on HEK293T-hCTLA4-hOX40 cells; on Jurkat-luc-hCTLA4", "T2 sequence (looked up)": "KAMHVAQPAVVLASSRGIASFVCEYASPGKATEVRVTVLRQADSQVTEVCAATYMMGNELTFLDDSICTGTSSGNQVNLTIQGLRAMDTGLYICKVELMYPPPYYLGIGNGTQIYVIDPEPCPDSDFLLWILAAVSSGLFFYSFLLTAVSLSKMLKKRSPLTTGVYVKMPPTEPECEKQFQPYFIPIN", "assay": "flow cytometry (MFI, anti-hIgG-Fc-Alexa Fluor 647) on HEK293T-hCTLA4-hOX40 cells co-expressing human CTLA4 and human OX40; the bispecific can bind both antigens on the same cell, signal not separable by target"}, "[3]": {"biological_target": "T3, Human OX40 protein having a His-Tag (human, UniProt P43489 29-216, limits assumed)", "T3 construct": "Bought recombinant protein; also called hOX40-His; hOX40; not shown: His tag", "T3 sequence (looked up)": "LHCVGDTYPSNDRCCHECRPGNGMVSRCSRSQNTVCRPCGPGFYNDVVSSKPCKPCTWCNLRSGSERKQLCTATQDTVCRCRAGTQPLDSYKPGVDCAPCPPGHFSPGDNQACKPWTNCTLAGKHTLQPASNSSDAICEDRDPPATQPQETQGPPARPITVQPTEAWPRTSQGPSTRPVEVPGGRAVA", "assay": "SPR Biacore 8K, Protein A chip; antibody captured, antigen analyte"}, "[4]": {"biological_target": "T4, Cynomolgus/Rhesus macaque OX40/TNFRSF4/CD134 Protein, His Tag (Cynomolgus/Rhesus macaque)", "T4 construct": "Bought recombinant protein; also called fasOX40-His; monkey OX40", "assay": "SPR Biacore 8K, Protein A chip; antibody captured, antigen analyte"}, "[5]": {"biological_target": "T2, human CTLA4 expressed on transfected …", "assay": "flow cytometry (MFI, anti-hIgG-Fc-Alexa Fluor 647) on HEK293T-hCTLA4-hOX40 cells co-expressing human CTLA4 and human OX40"}, "[6]": {"biological_target": "T2, human CTLA4 expressed on transfected …", "assay": "flow cytometry (MFI, anti-hIgG-Fc-Alexa Fluor 647) on HEK293T-hCTLA4-hOX40 cells co-expressing human CTLA4 and human OX40", "remark": "listed apart in the source"}, "[7]": {"biological_target": "T2, human CTLA4 expressed on transfected …", "assay": "flow cytometry (MFI, anti-hIgG-Fc-Alexa Fluor 647) on HEK293T-hCTLA4-hOX40 cells co-expressing human CTLA4 and human OX40", "remark": "listed apart in the source"}, "[8]": {"biological_target": "T5, Human CTLA4 protein having a His-Tag (human, UniProt P16410 37-162, limits assumed)", "T5 construct": "Bought recombinant protein; also called hCTLA4-His; hCTLA4; not shown: His tag", "T5 sequence (looked up)": "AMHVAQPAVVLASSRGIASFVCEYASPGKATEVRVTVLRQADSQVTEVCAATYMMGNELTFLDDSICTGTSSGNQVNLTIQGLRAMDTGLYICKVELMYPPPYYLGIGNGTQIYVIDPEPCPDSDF", "assay": "SPR Biacore 8K, Protein A chip; antibody captured, antigen analyte"}, "[9]": {"biological_target": "T1, human OX40 expressed on transfected …", "assay": "flow cytometry (MFI, anti-hIgG-Fc-Alexa Fluor 647) on HEK293T-hCTLA4-hOX40 cells co-expressing human CTLA4 and human OX40"}, "[10]": {"biological_target": "T3, Human OX40 protein having a His-Tag", "assay": "SPR Biacore 8K, Protein A chip; antibody captured, antigen analyte", "remark": "listed apart in the source"}, "[11]": {"biological_target": "T1, human OX40 expressed on transfected …", "assay": "flow cytometry (MFI, anti-hIgG-Fc-Alexa Fluor 647) on HEK293T-hCTLA4-hOX40 cells co-expressing human CTLA4 and human OX40; the bispecific can bind both antigens on the same cell, signal not separable by target", "remark": "listed apart in the source"}, "[12]": {"biological_target": "T2, human CTLA4 expressed on transfected …", "assay": "flow cytometry (MFI, anti-hIgG-Fc-Alexa Fluor 647) on HEK293T-hCTLA4-hOX40 cells co-expressing human CTLA4 and human OX40; the bispecific can bind both antigens on the same cell, signal not separable by target", "remark": "listed apart in the source"}, "[13]": {"biological_target": "T1, human OX40 expressed on transfected …", "assay": "flow cytometry (MFI, anti-hIgG-Fc-Alexa Fluor 647) on HEK293T-hCTLA4-hOX40 cells co-expressing human CTLA4 and human OX40", "remark": "listed apart in the source"}},
  "note": "Read-outs that look alike come from different tables or passages of the source.",
  "data": [
    {"binder": "OX-H7-CT-3D2-IgG1-SI (bispecific antibody, V domains shown, SI mutations (S239D, I332E, EU)) VH 1: QITLKESGPTLVKPAQTLTLTCTFSGFSLSTSGVGVGWIRQPPGKALEWLALIYWDDDKLYSPSLKSRLTITKDTSKNQVVLAMTNMDPVDTATYYCAHSQLGRDDYWGQGTLVTVSS VH 2: QVQLVESGPGLVKPSETLSLTCTVSGDSIRSSHYYWGWIRQPPGKGLEWIGSIYFNGITYYSPSLKSRVTISVDTSKNQFSLKLTSVTAADTAVFYCARHNNYYDSSGYWYYFDYWGQGTLVTVSS VL: not shown", "values": [
      {"measurement": "EC50 (read off the curve)", "setting": "[1]", "result": "~1", "unit": "µg/mL"},
      {"measurement": "EC50 (read off the curve)", "setting": "[2]", "result": "~1", "unit": "µg/mL"},
      {"measurement": "Kd", "setting": "[3]", "result": 182, "unit": "nM"},
      {"measurement": "koff", "setting": "[3]", "result": 0.00169, "unit": "s⁻¹"},
      {"measurement": "kon", "setting": "[3]", "result": 9260, "unit": "M⁻¹ s⁻¹"},
      {"measurement": "Kd", "setting": "[4]", "result": 163, "unit": "nM"},
      {"measurement": "koff", "setting": "[4]", "result": 0.001, "unit": "s⁻¹"},
      {"measurement": "kon", "setting": "[4]", "result": 6170, "unit": "M⁻¹ s⁻¹"}
    ]},
    {"binder": "CT-3D2-IgG1 (antibody, V domains shown, Human anti-CTLA4 antibody from RenLite mice) VH: QVQLVESGPGLVKPSETLSLTCTVSGDSIRSSHYYWGWIRQPPGKGLEWIGSIYFNGITYYSPSLKSRVTISVDTSKNQFSLKLTSVTAADTAVFYCARHNNYYDSSGYWYYFDYWGQGTLVTVSS VL: not shown", "values": [
      {"measurement": "EC50 (read off the curve)", "setting": "[5]", "result": "~2", "unit": "µg/mL"},
      {"measurement": "EC50 (read off the curve)", "setting": "[6]", "result": "~2", "unit": "µg/mL"},
      {"measurement": "EC50 (read off the curve)", "setting": "[7]", "result": "~2", "unit": "µg/mL"},
      {"measurement": "Kd", "setting": "[8]", "result": 17.1, "unit": "nM"},
      {"measurement": "koff", "setting": "[8]", "result": 0.00079, "unit": "s⁻¹"},
      {"measurement": "kon", "setting": "[8]", "result": 46200, "unit": "M⁻¹ s⁻¹"}
    ]},
    {"binder": "OX-H8-IgG1 (antibody, V domains shown, Monoclonal anti-OX40 antibody, IgG1 constant regions) VH: QITLKESGPTLVKPTQTLTLTCTFSGFSLSSRGVGVGWIRQPPGKALEWLALIYWDDDKRYSPSLKSRLTITKDTSKNQVVLTMANMDPVDTATYYCAHSHRGYENFWGQGTLVTVSS VL: EIVLTQSPATLSLSPGERATLSCRASQSINSYLAWYQQNPGQAPRLLIYLASNRATGIPARFSGSGSGTDFTLTITSLEPEDFAVYYCQQRSDWPPTFGQGTKVEIK", "values": [
      {"measurement": "EC50 (read off the curve)", "setting": "[9]", "result": "~7", "unit": "µg/mL"},
      {"measurement": "Kd", "setting": "[10]", "result": 8.68, "unit": "nM"},
      {"measurement": "koff", "setting": "[10]", "result": 0.00441, "unit": "s⁻¹"},
      {"measurement": "kon", "setting": "[10]", "result": 508000, "unit": "M⁻¹ s⁻¹"}
    ]},
    {"binder": "OX-4C8-CT-3D2-IgG1-SI (bispecific antibody, V domains shown, 1+1 knobs-into-holes human IgG1 with common light chain; SI mutations (S239D, I332E, EU)) VH 1: QVQLVESGPTLVKPTQTLTLTCTFSGFSLSTTRVGVGWIRQPPGKALEWLALIYWDDDKRYSPSLKNRLTLTKDTSKNQVVLTMTNMDPVDTATYYCAHFGSGTYYNVDYWGQGTLVTVSSAS VH 2: QVQLVESGPGLVKPSETLSLTCTVSGDSIRSSHYYWGWIRQPPGKGLEWIGSIYFNGITYYSPSLKSRVTISVDTSKNQFSLKLTSVTAADTAVFYCARHNNYYDSSGYWYYFDYWGQGTLVTVSS VL: not shown", "values": [
      {"measurement": "EC50 (read off the curve)", "setting": "[11]", "result": "~2", "unit": "µg/mL"},
      {"measurement": "EC50 (read off the curve)", "setting": "[12]", "result": "~2", "unit": "µg/mL"},
      {"measurement": "Kd", "setting": "[3]", "result": 17.6, "unit": "nM"},
      {"measurement": "koff", "setting": "[3]", "result": 0.00258, "unit": "s⁻¹"},
      {"measurement": "kon", "setting": "[3]", "result": 147000, "unit": "M⁻¹ s⁻¹"},
      {"measurement": "Kd", "setting": "[4]", "result": 6.4, "unit": "nM"},
      {"measurement": "koff", "setting": "[4]", "result": 0.0037, "unit": "s⁻¹"},
      {"measurement": "kon", "setting": "[4]", "result": 578000, "unit": "M⁻¹ s⁻¹"}
    ]},
    {"binder": "OX-4C8-IgG1 (antibody, V domains shown, Human anti-OX40 antibody; IgG1 constant regions) VH: QVQLVESGPTLVKPTQTLTLTCTFSGFSLSTTRVGVGWIRQPPGKALEWLALIYWDDDKRYSPSLKNRLTLTKDTSKNQVVLTMTNMDPVDTATYYCAHFGSGTYYNVDY VL: not shown", "values": [
      {"measurement": "Kd", "setting": "[10]", "result": 65.4, "unit": "nM"},
      {"measurement": "koff", "setting": "[10]", "result": 0.00738, "unit": "s⁻¹"},
      {"measurement": "kon", "setting": "[10]", "result": 113000, "unit": "M⁻¹ s⁻¹"},
      {"measurement": "EC50 (read off the curve)", "setting": "[13]", "result": "~0.3", "unit": "µg/mL"}
    ]}
  ]
}
